Source: publication PMC10470551 (mBio, 2023)

How the values were obtained:
CsTAL = target: T1, CsTAL (Clostridium scatologenes, UniProt A0A0E3M5J5); assay: coupled assays (PfHBDH or CaHAD), NADH at […] nm; format: biochemical; details: 50 mM Tris-HCl pH 7.5, room temperature
T1 construct: gene CSCA_1088; recombinant, pET-28a(+), N-terminal His6 tag, E. coli BL21(DE3), Ni-NTA
T1 sequence (A0A0E3M5J5 1-281): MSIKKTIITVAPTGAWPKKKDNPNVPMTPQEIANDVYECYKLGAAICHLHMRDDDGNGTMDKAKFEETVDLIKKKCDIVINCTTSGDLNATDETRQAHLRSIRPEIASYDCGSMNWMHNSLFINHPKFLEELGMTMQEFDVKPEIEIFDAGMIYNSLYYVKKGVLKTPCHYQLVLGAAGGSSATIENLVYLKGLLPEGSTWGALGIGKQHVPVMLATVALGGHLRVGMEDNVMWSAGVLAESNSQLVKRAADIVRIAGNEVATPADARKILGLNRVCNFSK

purified protein [1] = substrate: Oc1cc(O)cc(O)c1; assay: purified protein; details: co-substrate NADPH, 50 mM Tris-HCl pH 7.5, room temperature
purified protein [2] = substrate: NC(=O)C1=CN([C@@H]2O[C@H](COP(=O)(O)OP(=O)(O)OC[C@H]3O[C@@H](n4cnc5c(N)ncnc54)[C@H](OP(=O)(O)O)[C@@H]3O)[C@@H](O)[C@H]2O)C=CC1; assay: purified protein; format: biochemical, Clostridium scatologenes; details: 50 mM Tris-HCl pH 7.5, room temperature
purified protein [3] = substrate: NC(=O)C1=CN([C@@H]2O[C@H](COP(=O)(O)OP(=O)(O)OC[C@H]3O[C@@H](n4cnc5c(N)ncnc54)[C@H](O)[C@@H]3O)[C@@H](O)[C@H]2O)C=CC1; assay: purified protein; format: biochemical, Clostridium scatologenes; details: 2.0 mM triacetate (saturating), 50 mM Tris-HCl pH 7.5, room temperature
purified protein [4] = substrate: CC(=O)CC(=O)CC(=O)O; assay: purified protein; format: biochemical, Clostridium scatologenes; details: 1.0 mM NADPH, 50 mM Tris-HCl pH 7.5, room temperature
purified protein [5] = substrate: CC(=O)CC(=O)O; assay: purified protein; format: biochemical, Clostridium scatologenes; details: 1.0 mM NADPH, 50 mM Tris-HCl pH 7.5, room temperature
purified protein [6] = substrate: O=C1CC(=O)CC(O)C1; assay: purified protein; format: biochemical, Clostridium scatologenes; details: 2 mM Mn2+, 50 mM Tris-HCl pH 7.5, room temperature

CC(=O)CC(=O)CC(=O)O [TAA, 3,5-dioxohexanoate]
coupled assays (PfHBDH or CaHAD), NADH at 340 nm (CsTAL; co-substrate acetyl-CoA): Incubation of CsTAL with triacetate and acetyl-CoA resulted in the formation of acetoacetate and acetoacetyl-CoA

CC(=O)SCCNC(=O)CCNC(=O)[C@H](O)C(C)(C)COP(=O)(O)OP(=O)(O)OC[C@H]1O[C@@H](n2cnc3c(N)ncnc32)[C@H](O)[C@@H]1OP(=O)(O)O [acetyl-CoA]
coupled assays (PfHBDH or CaHAD), NADH at 340 nm (CsTAL; co-substrate triacetate): Incubation of CsTAL with triacetate and acetyl-CoA resulted in the formation of acetoacetate and acetoacetyl-CoA

B1: CsPGR (Clostridium scatologenes) (protein)
chain: MVDKKLINNLFDVKGKVALLTGATGALGKAVAFGYGQAGMKVFITGRSDDKCKALCNELKVDGIECGYSIGDPAIEADVIKIVDDCVAKFGEINVLLTAAGYNHPQPIVEQDLTEWQKIMNSDVQGTWLFCKYVGQKMIDQGKGGKVILVSSARSKMGMAGYTGYCTAKAGIDLMAQSLACEWTAKYGINVNTINPTVFRSDLTEWMFDPESAVYKNFLRRLPIGRLGEPEDFVGPCIFLASSASDFMTGANVATEGGYWAN
notes: recombinant, pET-28a(+), N-terminal His6 tag, E. coli BL21(DE3), Ni-NTA
Km (purified protein [1]): 300 µM
kcat (purified protein [1]): 22.4 to 25.3 s⁻¹
Km (purified protein [2]; co-substrate phloroglucinol): 210 µM
kcat (purified protein [2]; co-substrate phloroglucinol): 22.4 to 25.3 s⁻¹

B2: CsTfD (Clostridium scatologenes) (protein)
chain: MGSIIKNITVFGPGMMGSGIAQVFAGCKDSHVTVFIREKFEYECIDKIKGNLQVMKEKGIVTDADIAELFSRITLTEDMKAATKDADFIIECIPENMELKQNLFKNLEDLCREDTIFATNTSVMSITEISEKSKLKTRIVGTHFWNPPYLIPLVEVVKSDYTSEEVMNKTMELLKTVKKHPIRVNKDVPGFVANRLQHALWREAISIVENGIADAKTVDEAVKYSFGLRLPHLGPIENADMVGTDLTLSIHDYILKHLDKSIEAAPIVRKMVEAGELGFKSGKGFQEWTPEQAKASNESLREYLLKVLYGK
notes: recombinant, codon-optimized synthetic gene, pET-28a(+), N-terminal His6 tag, E. coli BL21(DE3), Ni-NTA
Km (purified protein [3]): 130 µM
Km (purified protein [2]; 2.0 mM triacetate (saturating)): 1700 µM
Km (purified protein [4]): 550 µM
Km (purified protein [5]): 3690 µM

B3: CsDPGC (Clostridium scatologenes) (protein)
chain: MGKKVYVDLTHPFSADIPRWPYFVKPVIDSMHSLAKGGVLTQRIDCVQHTGTHCDAPRHVMETEFNGKRARYTHEMPVDAYMGDAVCLEIKAGRWELITAAHLEDACKRANIKPEELEGMVVCLNTGMHRKFDDSKEYYHYSCGTGVEAGKWFVKYKVKCVAMDMQALDHPLHTAMGNNGATRLNLLGASGKPITEEYKEQFGEEAYAEFDKDEYIRIHGKEAYDAKFGDLEEIGCWGTWEPCHKEMLGHGIVGVENLGGDLDKVSGKRFRFLCLPIRWYMGDGSMVRCVAEIDEDNVNKDVADRVYTYGGF
notes: recombinant, pET-28a(+), N-terminal His6 tag, E. coli BL21(DE3), Ni-NTA; mostly apo as purified, Mn2+ added
Km (purified protein [6]): 190 ± 40 µM
kcat (purified protein [6]): 1.04 ± 0.10 s⁻¹
